Assay results: PMC12020772 (Journal for Immunotherapy of Cancer, 2025)
Blank lines part the entries; values can stand above or below the binder they belong to.

Legend:
[1] = biological target: MICA alpha-3 domain of MICA*001 (Homo sapiens, allele MICA*001, UniProt Q29983, strain); assay: crystal structure
[2] = biological target: MICB*004 extracellular domain (Homo sapiens, allele MICB*004, UniProt Q29980); assay: BLI
[3] = biological target: MICA*002 extracellular domain (Homo sapiens, allele MICA*002 (stand-in …, UniProt Q29983)); assay: ELISA
[4] = biological target: MICA*001 extracellular domain (Homo sapiens, allele MICA*001, UniProt Q29983); assay: ELISA

binding result [1]: binds
B1: Fab fragment of CLN-619 (Fab, V domains shown)
VH: QVQLVESGGGLVKPGGSLRLSCAASGFTFSNYAMSWIRQAPGKGLEWVSYISPGGDYIYYADSVKGRFTISRDNAKNSLYLQMNSLRAEDTAVYYCTTDRRHYGSYAMDYWGQGTLVTVSS
VL: DIVMTQSPLSLPVTPGEPASISCRSSKSLLHSNLNTYLYWFLQKPGQSPQILIYRMSNLASGVPDRFSGSGSGTAFTLKISRVEAEDVGVYYCMQHLEYPFTFGPGTKLEIK

Kd [2]: 11.4 nM | binding result [3]: binds | binding result [4]: binds
B2: CLN-619, humanized IgG1 monoclonal antibody against MICA/B (antibody, V domains shown)
VH: B1 VH
VL: B1 VL
